{"source": "paper PMC8351736", "about": "(Molecular Biology of the Cell, 2021)", "binders": {"B1": {"name": "6-histidine-tagged actin capping protein (His-Cap1/2 heterodimer) (complex, S. cerevisiae)", "chain 1": "MSSSKFEEVINKIINDSPPGELREVYDDLIKITSENSKNTILDAIENYNVQNCIPIEVNGNSVIISKYNKEGAKFFDPVNSVIFSVNHLERKGLDIEPYEFTHAKIEKGQLKELHDKLHEYLLQSFPGDVSFAVYPVPEEISKISIIIVSTKYNPNNFWNGHWRSSYIYDLETRELSGQISTQVHYYEDGNVSFQSGKDINQSNVDDVVCTIRDIETNFENDLDLSFFDLNEKQFKALRRRLPVTRSKINWGSAIGSYRLGKNAAEGK", "chain 2": "MSDAQFDAALDLLRRLNPTTLQENLNNLIELQPNLAQDLLSSVDVPLSTQKDSADSNREYLCCDYNRDIDSFRSPWSNTYYPELSPKDLQDSPFPSAPLRKLEILANDSFDVYRDLYYEGGISSVYLWDLNEEDFNGHDFAGVVLFKKNQSDHSNWDSIHVFEVTTSPSSPDSFNYRVTTTIILHLDKTKTDQNSHMMLSGNLTRQTEKDIAIDMSRPLDVIFTSHVANLGSLIEDIESQMRNLLETVYFEKTRDIFHQTKNAAIASSAEEANKDAQAEVIRGLQSL"}, "B2": {"name": "6-histidine-tagged Tda2 (His-Tda2) (natural protein, S. cerevisiae)", "chain": "SMQIEIKDGRSDNSPLPERKLVTLIQESYDSLKDDNEINLSTESTSNLLIKLVLEKLEKHSSLYKYIASVTTLNIEGLNEENANFSLKNDIGASWESKKDGIFNYKLEDKNNNECYLITILWLHK"}, "B3": {"name": "FITC-Aim21^CPI+TBR with 25 µM His-Tda2 (reconstituted Tda2-Aim21 peptide complex) (complex, S. cerevisiae)", "peptide": "KTGPLGGTRRGRGPRGRKLPSKVASVEKIEEDDNTNKIEIFNNWNVS", "chain": "B2 chain", "modifications": "FITC label (printed FITC-KTGPLGG...)"}, "B4": {"name": "His-Tda2 F86V (natural protein, S. cerevisiae)", "chain": "B2 chain with F85V"}, "B5": {"name": "His-Tda2 D101A (natural protein, S. cerevisiae)", "chain": "B2 chain with D100A"}}, "key": {"[1]": {"target": "T1, Aim21^1-600-GST (S. cerevisiae, UniProt P40563 1-600)", "T1 sequence (looked up)": "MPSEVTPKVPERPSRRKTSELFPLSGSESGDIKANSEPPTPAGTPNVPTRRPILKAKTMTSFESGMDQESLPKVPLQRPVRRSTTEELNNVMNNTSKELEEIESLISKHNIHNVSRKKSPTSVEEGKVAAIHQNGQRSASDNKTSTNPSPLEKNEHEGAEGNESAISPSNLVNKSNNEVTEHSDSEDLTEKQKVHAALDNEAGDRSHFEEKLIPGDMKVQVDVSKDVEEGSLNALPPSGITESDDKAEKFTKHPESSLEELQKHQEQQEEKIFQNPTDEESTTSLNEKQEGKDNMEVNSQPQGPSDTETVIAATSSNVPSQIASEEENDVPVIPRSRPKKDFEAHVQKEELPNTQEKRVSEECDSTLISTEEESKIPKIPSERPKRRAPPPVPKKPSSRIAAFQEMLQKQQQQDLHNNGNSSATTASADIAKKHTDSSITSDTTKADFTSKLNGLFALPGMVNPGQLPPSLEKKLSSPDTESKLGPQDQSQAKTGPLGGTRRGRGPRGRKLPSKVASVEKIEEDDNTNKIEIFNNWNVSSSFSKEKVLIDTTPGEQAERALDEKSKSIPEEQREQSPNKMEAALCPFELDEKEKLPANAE", "assay": "pull-down"}, "[2]": {"target": "T2, GST-Aim21^504,507,509E (S. cerevisiae, UniProt P40563 1-679, Aim21^504,507,509E | Aim21^504,507,509E | Aim21^504,507,509E)", "T2 sequence (looked up)": "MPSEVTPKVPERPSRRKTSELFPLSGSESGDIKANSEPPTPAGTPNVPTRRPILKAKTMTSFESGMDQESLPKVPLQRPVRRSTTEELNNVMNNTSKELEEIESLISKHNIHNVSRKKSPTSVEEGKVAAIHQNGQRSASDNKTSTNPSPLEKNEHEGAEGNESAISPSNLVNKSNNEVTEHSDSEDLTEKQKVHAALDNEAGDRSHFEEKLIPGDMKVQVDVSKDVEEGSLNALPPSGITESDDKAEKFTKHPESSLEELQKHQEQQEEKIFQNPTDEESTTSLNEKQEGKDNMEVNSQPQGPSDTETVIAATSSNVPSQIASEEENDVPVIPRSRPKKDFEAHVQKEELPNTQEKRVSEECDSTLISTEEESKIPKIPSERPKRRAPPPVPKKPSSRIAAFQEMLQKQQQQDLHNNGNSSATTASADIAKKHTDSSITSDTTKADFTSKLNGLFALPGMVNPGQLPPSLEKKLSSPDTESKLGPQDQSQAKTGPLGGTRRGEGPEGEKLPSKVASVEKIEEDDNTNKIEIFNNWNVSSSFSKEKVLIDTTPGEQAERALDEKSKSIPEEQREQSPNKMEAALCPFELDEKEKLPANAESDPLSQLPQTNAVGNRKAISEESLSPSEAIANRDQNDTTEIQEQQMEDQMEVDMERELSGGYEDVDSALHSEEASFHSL", "assay": "pull-down"}, "[3]": {"target": "T3, His-tagged Aim21 (His-Aim21) (S. cerevisiae, UniProt P40563 1-679)", "T3 sequence (looked up)": "T2 sequence (looked up) with E504R, E507R, E509R", "assay": "SEC + other: sucrose density gradient fractionation"}, "[4]": {"target": "the molecule itself", "assay": "SEC + other: sucrose density gradient fractionation"}, "[5]": {"target": "B1", "assay": "fluorescence polarisation"}, "[6]": {"target": "B4", "assay": "pull-down"}, "[7]": {"target": "T4, His-Tda2 K107E (S. cerevisiae, UniProt P40045 2-126, K107E)", "T4 sequence": "B2 chain with K106E", "assay": "pull-down"}, "[8]": {"target": "T5, His-Tda2 I103Q (S. cerevisiae, UniProt P40045 2-126, I103Q)", "T5 sequence": "B2 chain with I102Q", "assay": "pull-down"}, "[9]": {"target": "the molecule itself", "assay": "SEC"}, "[10]": {"target": "B4", "assay": "fluorescence polarisation"}, "[11]": {"target": "B1", "assay": "fluorescence polarisation", "remark": "listed apart in the source"}, "[12]": {"target": "B2", "assay": "fluorescence polarisation"}}, "note": "Residue numbers refer to the chain shown, from its start. Names may count otherwise. Where two headings read alike, the source gives them in different places. Ends that are not written are not given here. * marks the point of attachment. FITC = O=C1OC2(c3ccc(O)cc3Oc3cc(O)ccc32)c2ccc(NC(=S)*)cc21"}
{"binder": "B1", "values": [{"measurement": "binding result", "setting": "[1]", "value": "binds"}]}
{"binder": "B2", "values": [{"measurement": "binding result", "setting": "[2]", "value": "binds"}, {"measurement": "stoichiometry N", "setting": "[3]", "value": "2 Aim21 molecules per Tda2 homodimer"}, {"measurement": "stoichiometry N", "setting": "[4]", "value": 2}]}
{"binder": "B3", "values": [{"measurement": "Kd", "setting": "[5]", "value": 250, "unit": "nM"}]}
{"binder": "KLPSKVASVEKIEEDDNTNKIEIFNNWNVSSSFSKEKVLIDTTPGE (domain or fragment, S. cerevisiae, UniProt P40563 510-555, looked up)", "note": "[GST-Aim21^510-555 (wild type)]", "values": [{"measurement": "binding result", "setting": "[6]", "value": "binds"}, {"measurement": "binding result", "setting": "[7]", "value": "binds"}, {"measurement": "binding result", "setting": "[8]", "value": "binds"}]}
{"binder": "B4", "values": [{"measurement": "binding result", "setting": "[9]", "value": "binds"}]}
{"binder": "{FITC}-KIEIFNNWNVS", "note": "[FITC-labeled Aim21 peptide spanning AA 529–539 (FITC-Aim21)]", "values": [{"measurement": "binding result", "setting": "[10]", "value": "binds"}]}
{"binder": "B5", "values": [{"measurement": "binding result", "setting": "[9]", "value": "binds"}]}
{"binder": "{FITC}-KTGPLGGTRRGRGPRGRKLPSKVASVEKIEEDDNTNKIEIFNNWNVS", "note": "[FITC-labeled Aim21 peptide spanning AA 493–539, with the CPI motif and the TBR (FITC-Aim21^CPI+TBR)]", "values": [{"measurement": "Kd", "setting": "[11]", "value": 3100, "unit": "nM"}, {"measurement": "binding result", "setting": "[12]", "value": "binds"}]}
